Test results: patent US20250163122A1, “COMPOSITIONS AND METHODS FOR TREATING AIRWAY MUCUS DYSFUNCTION” (BOARD OF REGENTS, THE UNIVERSITY OF TEXAS SYSTEM, priority 2022, published 2025)
Blank lines part the entries; values can stand above or below the binder they belong to. Bridges are numbered along the chain shown (N, C = ends). Where no end group is shown, it is not given here. [ ]: non-standard residue; d: D form. S5 = C=CCCC[C@](C)(N)C(=O)O

Key:
Syt2 C2B [1] = target: T1, Syt2 C2B (Rattus norvegicus (Rat), UniProt P29101 272-422); assay: bulk fluorescence anisotropy, Cy3-labeled peptide with varying concentrations of C2B
T1 construct: also called C2B domain of Syt2

Syt1 C2B [2] = target: T2, Syt1 C2B (Homo sapiens (Human), UniProt P21579 272-422); assay: as above
T2 construct: Expressed as a GST fusion in E. coli and the tag cleaved with PreScission protease; also called C2B domain of Syt1; Syt1C2B, aa 271-421

Syt2 C2B [3] = target: T1, Syt2 C2B; assay: bulk fluorescence anisotropy, Cy3-labeled peptide with varying concentrations of unlabeled C2B; Hill fit with coefficient constrained to one
Syt1 C2B [4] = target: T2, Syt1 C2B; assay: as above

T2 sequence (P21579 272-422 limits assumed): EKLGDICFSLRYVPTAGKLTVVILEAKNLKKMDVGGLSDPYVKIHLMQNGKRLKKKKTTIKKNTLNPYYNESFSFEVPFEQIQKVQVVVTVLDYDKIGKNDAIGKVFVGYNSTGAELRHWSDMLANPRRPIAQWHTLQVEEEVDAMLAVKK
T1 sequence (P29101 272-422 limits assumed): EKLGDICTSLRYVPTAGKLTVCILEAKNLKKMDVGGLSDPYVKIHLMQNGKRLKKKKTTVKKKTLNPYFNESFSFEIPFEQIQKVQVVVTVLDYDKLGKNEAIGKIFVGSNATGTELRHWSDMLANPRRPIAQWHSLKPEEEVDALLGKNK

binding result (Syt2 C2B [1]): no binding
binding result (Syt1 C2B [2]): no binding
B1: P0-Cy3 (peptide)
peptide: EESKDAGIRTLVMLDEQGEQLD-{C(Cy3 maleimide)-NH2}
notes: Labeled control peptide of the anisotropy assay; also called PO-Cy3; Cy3-labeled P0

Kd (Syt2 C2B [3]): 35 µM
Kd (Syt1 C2B [4]): 24 µM
B2: SP9-Cy3 (peptide)
peptide: Ac-EE[S5]KDA[S5]IR[S5]LVM[S5]DEQ
modifications: staple 10-14, 3-7; not fully specified (C-terminus); printed as Ac-EE(S5)KDA(S5)IR(S5)LVM(S5)DEQ-(C/Cy3Mal)-amide; also: Cy3 maleimide on C-terminal Cys
notes: Synthetic hydrocarbon-stapled peptide; This Cy3-labeled form was used in the bulk fluorescence anisotropy assay, diluted to 10 nM; also called Cy3 labeled SP9; Cy3-labeled SP9
